Measured values: US20140341888A1
pKd: −log10 of the molar value.

Molecular target: EGFR-AP fusion protein (UniProt P00533)
Experiment: SPR (BIAcore), EGFR-AP immobilized, antibody 1.5 nM to 100 nM

IMC-11F8 Fab, sequence (VH): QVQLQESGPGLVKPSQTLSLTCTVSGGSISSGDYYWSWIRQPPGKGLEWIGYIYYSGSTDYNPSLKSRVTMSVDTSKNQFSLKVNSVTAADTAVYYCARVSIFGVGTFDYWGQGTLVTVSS
IMC-11F8 Fab, sequence (VL): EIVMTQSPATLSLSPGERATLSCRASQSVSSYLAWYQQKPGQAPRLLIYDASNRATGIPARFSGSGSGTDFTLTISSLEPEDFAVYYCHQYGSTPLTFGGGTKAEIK

pKd: 8.75
koff: 0.00367 s⁻¹
kon: 2.29e+06 M⁻¹ s⁻¹
Substance: IMC-11F8 Fab
